Test results as given in US20250215092A1 (ZHEJIANG NANOMAB TECHNOLOGY CENTER, published 2025).
Each block holds one binder with its values, some of them ahead of it.

How the values were obtained:
[1] = biological target: T1, human EGFR.His antigen (Acro, Cat #EGR-H522a) (human, UniProt P00533 25-645); test: competition ELISA: EGFR his tag protein coated, antibody titrated together with Human EGF-mouse IgG2a Fc, bound EGF detected with HRP anti-mouse IgG, unit taken from the concentration axis (paragraph 62 says nM); OD450 falls only from about 2.4 to about 2.1 [table]
T1 construct: extracellular domain; Bought protein; also called EGFR his tag protein; full-length EGFR extracellular domain protein; not shown: His tag
Experimental: (§1) Briefly, EGFR his tag protein was diluted with PBS to 2 μg/mL, and 100 μL of the antigen was added to each well of an ELISA plate and coated overnight at 4° C. The next day, the plates were washed twice with PBST (containing 0.5% TWEEN-20), and then blocked with 3% BSA at 37° C. for 1.5 h, followed by two washes with PBST. […] VHH-IgG4 antibodies were diluted to 2000 nM and then serially diluted 4-fold for 8 gradients. […] After washing 3 times, HRP goat anti-mouse IgG (Goat anti-Mouse IgG) (H+L) antibody (Abcam, cat #ab205719) diluted at 1:3000 was added to each well, and the plate was incubated at 37° C. for 40 min. The plates were then washed 3 times with PBST, and 100 μL of TMB substrate was added to each well and allowed to react for 3-5 min. The reaction was stopped by adding 100 μL of 3N hydrochloric acid per well. After stopping the reaction, the optical density at 450/650 nm was measured using a Tecan microplate reader. The dose-response curve was plotted, and the IC50 was calculated using GraphPad Prism 8.0 software.

[2] = biological target: T2, EGFR-D4 (F481-S645, P00533-1 (uniprot)) his tag antigen (human, UniProt P00533 481-645); test: ELISA: EGFR-D4 his tag antigen coated at 0.5 µg/mL, antibody at 2000, 200, 20, 2 nM, HRP goat anti-human IgG Fc, OD450
T2 construct: range 481-645; also called IV domain protein; EGFR-D4 protein; not shown: His tag
Experimental: (2) Protein Binding Epitope Analysis: ELISA was used to determine the binding of VHH-IgG4 antibody to each domain of EGFR extracellular protein. Briefly, EGFR his tag protein, and EGFR-V3-his tag antigen protein were diluted to 1 μg/mL, EGFR-D1D2 (L25-A310, P00533-1 (uniprot)), and EGFR-D4 (F481-S645, P00533-1 (uniprot)) his tag antigen were diluted to 0.5 μg/mL, and each well of an ELISA plate was coated with […] antigen and incubated overnight at 4° C. The next day, the plates were washed twice with PBST (added with 0.5% TWEEN-20), then blocked with 3% BSA at 37° C. for 1.5 h, and then washed twice with PBST. Then, the antibody to be tested was diluted to 50 nM, 5 nM, 0.5 nM, 0.05 nM, and added to the wells coated with EGFR his tag protein or EGFR-V3-his tag antigen at 100 µL/well, respectively. The antibody was diluted to 2000 nM, 200 nM, 20 nM, 2 nM, and added to the wells coated with EGFR his tag protein or EGFR-V3-his tag antigen at 100 µL/well, respectively. The ELISA plates were incubated at 37° C. for 1 h. The plates were then washed three times with PBST, and then 100 μL HRP labeled Goat anti human IgG Fc antibody (1:10000, Bethyl) was added into each well, and incubated at 37° C. for another 40 min. After washing the plates four times with PBST, 100 μL of TMB substrate was added to each well, and the reaction was allowed to proceed for 3-5 min. The reaction was stopped by adding 100 μL of 3N hydrochloric acid per well. After stopping the reaction, the optical density at 450/650 nm was measured using a Tecan microplate reader.

[3] = biological target: T3, EGFR on SKOV3 and Aspc-1 tumor cells (human, UniProt P00533); test: flow cytometry on Aspc-1 tumor cells, anti-human IgG PE, MFI, curve fit; unit from the concentration axis and paragraph 62 [table]
T3 construct: endogenous, on the cell surface; the cell line is named under assay; also called tumor cell EGFR
Experimental: (§2) Two kinds of tumor cells, SKOV3 and Aspc-1, expressing EGFR were respectively plated in 96 well plates, with 3×10⁵ cells per well, and then the tumor cells were incubated with gradient diluted VHH-IgG4 antibody. After incubation on ice for half an hour, anti human IgG PE (Jackson Immuno Research, Code: 109-117-008, Lot:145501) was added for incubation, and then CytoFLEX flow cytometry was used for detection. The EC50 of the antibody was calculated by curve fitting.

[4] = biological target: T3, EGFR on SKOV3 and Aspc-1 tumor cells; test: flow cytometry on Aspc-1 tumor cells, anti-human IgG PE, MFI, curve fit; unit from the concentration axis and paragraph 62; no upper plateau within the range shown [table]
Experimental: as §2

[5] = biological target: T1, human EGFR.His antigen (Acro, Cat …); test: competition ELISA: EGFR his tag protein coated, antibody titrated together with Human EGF-mouse IgG2a Fc, bound EGF detected with HRP anti-mouse IgG, unit taken from the concentration axis (paragraph 62 says nM); OD450 falls only from about 2.4 to about 2.1-2.2 [table]
Experimental: as §1

[6] = biological target: T1, human EGFR.His antigen (Acro, Cat …); test: competition ELISA: EGFR his tag protein coated, antibody titrated together with Human EGF-mouse IgG2a Fc, bound EGF detected with HRP anti-mouse IgG, unit taken from the concentration axis (paragraph 62 says nM); OD450 falls only from about 2.4 to about 2.0-2.2 [table]
Experimental: as §1

[7] = biological target: T3, EGFR on SKOV3 and Aspc-1 tumor cells; test: flow cytometry on SKOV3 tumor cells, anti-human IgG PE, MFI, curve fit; unit from the concentration axis and paragraph 62; the curve is barely above Isotype 2: MFI about 1800 at about 250 nM, no plateau [table]
Experimental: as §2

[8] = biological target: T1, human EGFR.His antigen (Acro, Cat …); test: competition ELISA: EGFR his tag protein coated, antibody titrated together with Human EGF-mouse IgG2a Fc, bound EGF detected with HRP anti-mouse IgG, unit taken from the concentration axis (paragraph 62 says nM); the curve does not fall (OD450 about 2.4 to 2.65), no blocking, so the fit is not meaningful [table]
Experimental: as §1

IC50 [1]: 0.038 µg/mL
binding result [2]: no binding (tested: 2000 nM)
EC50 [3]: 3.7 nM
B1: E002 VHH-IgG4 antibody (antibody, V domains shown)
VH: QVQLVESGGGLVQAGGSLRLSCAASGFTFSDYAVSWYRQAPGKEREFVARITGTGETSRYEDSVKGRFAISRDNVKNTAYLQMNSLKPEDTAVYYCSIYHPPRDYWGQGTQVTVSS
notes: VHH fused to IgG4 (VHH-IgG4), expressed in ExpiCHO, protein A purified; not shown: human IgG4 constant part from the pCDNA3.4-IgG4 vector

binding result [2]: no binding (tested: 2000 nM)
EC50 [3]: 1.5 nM
B2: E008 VHH-IgG4 antibody (antibody, V domains shown)
VH: EVQVVESGGGLVQSGGSLTLSCTSSGLPLLDYAIGWFRQAPGKEREAVSAISISEGSTYYTDSVRGRFTISRDNNKNKVYLRMDNLKPEDTAVYYCAADKTDIGFWLLVGGAGGGEVRYEYWGQGTQVTVSS
notes: as for B1

IC50 [1]: 0.084 µg/mL
EC50 [4]: 17 nM
B3: E003 VHH-IgG4 antibody (antibody, V domains shown, not shown: a dimerising Fc or GST)
VH: QVQLVESGGGLVQPGGSLRLSCVASGGVFSSYAMGWYRQVPGKLRELVATITSGHSTTYADIVRGRFTISRDNTKNTVYLQMNRLEPDDTAVYYCNRSPYTPGNWGQGTLVTVSS

IC50 [5]: 0.033 µg/mL
EC50 [4]: 15 nM
B4: E005 VHH-IgG4 antibody (antibody, V domains shown)
VH: QVQLVESGGGLVQPGGSLRLSCEASGFAFSDYTMRWHRQAAGKELELVAYITSAGDIIKYANSVRGRFTISRDNAKNTLYLQMDSLKPEDTAVYRCNALVSASVRASDYWGQGTLVTVSS
notes: as for B1

IC50 [6]: 0.152 µg/mL
EC50 [4]: 39 nM
B5: E007 VHH-IgG4 antibody (antibody, V domains shown, not shown: a dimerising Fc or GST)
VH: EVQLVESGGGLVQPGGSLRLSCEASGFSFSDHTMRWHRQAAGKNLELVAYITPAGDIIKYADSVQGRFTISRDNAKNMLYLQMDSLRPDDTAVYRCNALVSAAVRASDYWGQGTQVTVSS

EC50 [7]: 245 nM
IC50 [8]: ~22.8 µg/mL
B6: E004 VHH-IgG4 antibody (antibody, V domains shown, not shown: a dimerising Fc or GST)
VH: EVQLVESGGGLAQSGGSLRLACEASGFPFETYAMSWARQTPGNEPEWVAGIFPDGKHTAYAHSVKGRFTISRVNANNTVYLQMDSLKPEDTAVYYCAKDLPFFATPSFYIGYWGQGTLVTVSS
